Measurements reported in paper PMC3140568 (Journal of immunology (Baltimore, Md. : 1950), 2011).
Square brackets hold non-standard residues; d marks the D form. Ends that are not written are not given here. pS = N[C@@H](COP(=O)(O)O)C(=O)O

Target: T1, TNF receptor-associated death domain protein, wild type (human, UniProt Q15628 1-312)
T1 sequence (looked up): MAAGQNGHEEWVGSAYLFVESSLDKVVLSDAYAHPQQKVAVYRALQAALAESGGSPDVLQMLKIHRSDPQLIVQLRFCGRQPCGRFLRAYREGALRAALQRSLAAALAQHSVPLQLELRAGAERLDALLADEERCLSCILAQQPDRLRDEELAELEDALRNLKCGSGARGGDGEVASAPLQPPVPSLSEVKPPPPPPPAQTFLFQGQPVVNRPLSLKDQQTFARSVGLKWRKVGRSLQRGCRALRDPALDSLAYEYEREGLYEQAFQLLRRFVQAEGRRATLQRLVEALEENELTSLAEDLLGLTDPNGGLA
Assay: peptide competition on an immuno-purified complex

VRRLGL[pS]DHEIDRLELQNGRC (peptide, UniProt P19438 375-395, looked up) [phosphorylated peptide containing the S381XXE motif of TNFR1 (position 375–395)]: binds.
